# Source: patent publication US20210388087A1 (Chugai, published 2021)
# Changes are numbered by the printed parent chain. Numbers in names are those of the source.
# B1: dBBDu183H A98S / dBBDu072L (antibody, name in Kabat numbering, V domains shown)
# VH: QVQLVESGGGLVQPGRSLRLSCAASGFTFSNAWMHWVRQAPGKGLEWVAQIKDKGNAYAAYYAPSVKGRFTISRDDSKNSIYLQMNSLKTEDTAVYYCHYVHYSSASTVLPAFGVDAWGQGTTVTVSS
# VL: DIVMTQSPLSLPVTPGEPASISCQASQELVHMNRNTYLHWYQQKPGQAPRLLIYKVSNRFPGVPDRFSGSGSGTDFTLKISRVEAEDVGVYYCAQGTSVPFTFGQGTKLEIK
# notes: as m1, one VH change
# B2: dBBDu183H A100G / dBBDu072L (antibody, name in Kabat numbering, V domains shown)
# VH: B1 VH with S104A, A106G
# VL: B1 VL
# notes: as m1, one VH change
# B3: dBBDu183H A102S / dBBDu072L (antibody, name in Kabat numbering, V domains shown)
# VH: B1 VH with S104A, A117S
# VL: B1 VL
# notes: as m1, one VH change
# B4: dBBDu183H F100gH / dBBDu072L (antibody, name in Kabat numbering, V domains shown)
# VH: B1 VH with S104A, F113H
# VL: B1 VL
# notes: as m1, one VH change
# B5: dBBDu183H H93N / dBBDu072L (antibody, name in Kabat numbering, V domains shown)
# VH: B1 VH with H99N, S104A
# VL: B1 VL
# notes: as m1, one VH change
# B6: dBBDu183H F100gE / dBBDu072L (antibody, name in Kabat numbering, V domains shown)
# VH: B1 VH with S104A, F113E
# VL: B1 VL
# notes: as m1, one VH change
# B7: dBBDu183H G65E / dBBDu072L (antibody, name in Kabat numbering, V domains shown)
# VH: B1 VH with G68E, S104A
# VL: B1 VL
# notes: as m1, one VH change
# B8: dBBDu183H H96V / dBBDu072L (antibody, name in Kabat numbering, V domains shown)
# VH: B1 VH with H102V, S104A
# VL: B1 VL
# notes: as m1, one VH change
# B9: dBBDu183H A100fG / dBBDu072L (antibody, name in Kabat numbering, V domains shown)
# VH: B1 VH with S104A, A112G
# VL: B1 VL
# notes: as m1, one VH change
# B10: dBBDu183H G65T / dBBDu072L (antibody, name in Kabat numbering, V domains shown)
# VH: B1 VH with G68T, S104A
# VL: B1 VL
# notes: as m1, one VH change
# B11: dBBDu183H A100fS / dBBDu072L (antibody, name in Kabat numbering, V domains shown)
# VH: B1 VH with S104A, A112S
# VL: B1 VL
# notes: as m1, one VH change
# B12: dBBDu183H H96F / dBBDu072L (antibody, name in Kabat numbering, V domains shown)
# VH: B1 VH with H102F, S104A
# VL: B1 VL
# notes: as m1, one VH change
# B13: dBBDu183H H96Y / dBBDu072L (antibody, name in Kabat numbering, V domains shown)
# VH: B1 VH with H102Y, S104A
# VL: B1 VL
# notes: as m1, one VH change
# B14: dBBDu183H G65W / dBBDu072L (antibody, name in Kabat numbering, V domains shown)
# VH: B1 VH with G68W, S104A
# VL: B1 VL
# notes: as m1, one VH change
# B15: dBBDu183H G65Y / dBBDu072L (antibody, name in Kabat numbering, V domains shown)
# VH: B1 VH with G68Y, S104A
# VL: B1 VL
# notes: as m1, one VH change
# B16: dBBDu183H A102G / dBBDu072L (antibody, name in Kabat numbering, V domains shown)
# VH: B1 VH with S104A, A117G
# VL: B1 VL
# notes: as m1, one VH change
# B17: dBBDu183H F100gW / dBBDu072L (antibody, name in Kabat numbering, V domains shown)
# VH: B1 VH with S104A, F113W
# VL: B1 VL
# notes: as m1, one VH change
# B18: dBBDu183H A100N / dBBDu072L (antibody, name in Kabat numbering, V domains shown)
# VH: B1 VH with S104A, A106N
# VL: B1 VL
# notes: as m1, one VH change
# B19: dBBDu183H D101Q / dBBDu072L (antibody, name in Kabat numbering, V domains shown)
# VH: B1 VH with S104A, D116Q
# VL: B1 VL
# notes: as m1, one VH change
# B20: dBBDu183H A100Q / dBBDu072L (antibody, name in Kabat numbering, V domains shown)
# VH: B1 VH with S104A, A106Q
# VL: B1 VL
# notes: as m1, one VH change
# B21: dBBDu183H H96W / dBBDu072L (antibody, name in Kabat numbering, V domains shown)
# VH: B1 VH with H102W, S104A
# VL: B1 VL
# notes: as m1, one VH change
# B22: dBBDu183H A100R / dBBDu072L (antibody, name in Kabat numbering, V domains shown)
# VH: B1 VH with S104A, A106R
# VL: B1 VL
# notes: as m1, one VH change
# B23: dBBDu183H D101N / dBBDu072L (antibody, name in Kabat numbering, V domains shown)
# VH: B1 VH with S104A, D116N
# VL: B1 VL
# notes: as m1, one VH change
# B24: dBBDu183H F100gV / dBBDu072L (antibody, name in Kabat numbering, V domains shown)
# VH: B1 VH with S104A, F113V
# VL: B1 VL
# notes: as m1, one VH change
# B25: dBBDu183H F100gY / dBBDu072L (antibody, name in Kabat numbering, V domains shown)
# VH: B1 VH with S104A, F113Y
# VL: B1 VL
# notes: as m1, one VH change
# B26: dBBDu183H F100gQ / dBBDu072L (antibody, name in Kabat numbering, V domains shown)
# VH: B1 VH with S104A, F113Q
# VL: B1 VL
# notes: as m1, one VH change
# B27: dBBDu183H G65K / dBBDu072L (antibody, name in Kabat numbering, V domains shown)
# VH: B1 VH with G68K, S104A
# VL: B1 VL
# notes: as m1, one VH change
# B28: dBBDu183H G65Q / dBBDu072L (antibody, name in Kabat numbering, V domains shown)
# VH: B1 VH with G68Q, S104A
# VL: B1 VL
# notes: as m1, one VH change
# B29: dBBDu183H G65N / dBBDu072L (antibody, name in Kabat numbering, V domains shown)
# VH: B1 VH with G68N, S104A
# VL: B1 VL
# notes: as m1, one VH change
# B30: dBBDu183H G65F / dBBDu072L (antibody, name in Kabat numbering, V domains shown)
# VH: B1 VH with G68F, S104A
# VL: B1 VL
# notes: as m1, one VH change
# B31: dBBDu183H A100fH / dBBDu072L (antibody, name in Kabat numbering, V domains shown)
# VH: B1 VH with S104A, A112H
# VL: B1 VL
# notes: as m1, one VH change
# B32: dBBDu183H H96T / dBBDu072L (antibody, name in Kabat numbering, V domains shown)
# VH: B1 VH with H102T, S104A
# VL: B1 VL
# notes: as m1, one VH change
# B33: dBBDu183H D101S / dBBDu072L (antibody, name in Kabat numbering, V domains shown)
# VH: B1 VH with S104A, D116S
# VL: B1 VL
# notes: as m1, one VH change
# B34: dBBDu183H G65D / dBBDu072L (antibody, name in Kabat numbering, V domains shown)
# VH: B1 VH with G68D, S104A
# VL: B1 VL
# notes: as m1, one VH change
# B35: dBBDu183H G65S / dBBDu072L (antibody, name in Kabat numbering, V domains shown)
# VH: B1 VH with G68S, S104A
# VL: B1 VL
# notes: as m1, one VH change
# B36: dBBDu183H D101T / dBBDu072L (antibody, name in Kabat numbering, V domains shown)
# VH: B1 VH with S104A, D116T
# VL: B1 VL
# notes: as m1, one VH change
# B37: dBBDu183H D101E / dBBDu072L (antibody, name in Kabat numbering, V domains shown)
# VH: B1 VH with S104A, D116E
# VL: B1 VL
# notes: as m1, one VH change
# B38: dBBDu183H A100K / dBBDu072L (antibody, name in Kabat numbering, V domains shown)
# VH: B1 VH with S104A, A106K
# VL: B1 VL
# notes: as m1, one VH change
# B39: dBBDu183H G65H / dBBDu072L (antibody, name in Kabat numbering, V domains shown)
# VH: B1 VH with G68H, S104A
# VL: B1 VL
# notes: as m1, one VH change
# B40: dBBDu183H F100gT / dBBDu072L (antibody, name in Kabat numbering, V domains shown)
# VH: B1 VH with S104A, F113T
# VL: B1 VL
# notes: as m1, one VH change
# B41: dBBDu183H F100gS / dBBDu072L (antibody, name in Kabat numbering, V domains shown)
# VH: B1 VH with S104A, F113S
# VL: B1 VL
# notes: as m1, one VH change
# B42: dBBDu183H G65V / dBBDu072L (antibody, name in Kabat numbering, V domains shown)
# VH: B1 VH with G68V, S104A
# VL: B1 VL
# notes: as m1, one VH change
# B43: dBBDu183H G65R / dBBDu072L (antibody, name in Kabat numbering, V domains shown)
# VH: B1 VH with G68R, S104A
# VL: B1 VL
# notes: as m1, one VH change
# B44: dBBDu183H A100E / dBBDu072L (antibody, name in Kabat numbering, V domains shown)
# VH: B1 VH with S104A, A106E
# VL: B1 VL
# notes: as m1, one VH change
# Molecular target: T1, Human CD137 ECD (human)
# T1 construct: also called 4-1BB
# T1 sequence (chain, as listed by the source limits assumed): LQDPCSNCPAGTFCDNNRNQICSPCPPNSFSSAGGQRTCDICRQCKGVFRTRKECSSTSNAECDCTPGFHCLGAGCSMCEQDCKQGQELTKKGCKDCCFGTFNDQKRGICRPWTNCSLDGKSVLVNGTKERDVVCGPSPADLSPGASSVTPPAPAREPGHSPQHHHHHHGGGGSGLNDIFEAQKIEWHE
# Assay: SPR, vs parent H183/L072
row,Binder,fold change of affinity
1,B1,0.3 fold
2,B2,0.7 fold
3,B3,0.9 fold
4,B4,0.7 fold
5,B5,0.1 fold
6,B6,1.9 fold
7,B7,1.3 fold
8,B8,0.8 fold
9,B9,0.6 fold
10,B10,1.3 fold
11,B11,0.7 fold
12,B12,1.4 fold
13,B13,3.3 fold
14,B14,1.3 fold
15,B15,1.3 fold
16,B16,1.6 fold
17,B17,0.6 fold
18,B18,0.4 fold
19,B19,1.7 fold
20,B20,0.6 fold
21,B21,1.6 fold
22,B22,0.5 fold

row,Binder,fold change of affinity
1,B23,0.7 fold
2,B24,0.5 fold
3,B25,1 fold
4,B26,0.8 fold
5,B27,1.1 fold
6,B28,1.2 fold
7,B29,1.2 fold
8,B30,1.3 fold
9,B31,1 fold
10,B32,0.5 fold
11,B33,3.3 fold
12,B34,1.3 fold
13,B35,1.2 fold
14,B36,3.3 fold
15,B37,2.2 fold
16,B38,1.1 fold
17,B39,1.2 fold
18,B40,0.7 fold
19,B41,0.4 fold
20,B42,1.2 fold
21,B43,1.1 fold
22,B44,0.5 fold
